US20210077592A1, “COMPOSITION TO PREVENT INTESTINAL DAMAGE” (FUSION FARM S.R.L. SEMPLIFICATA, priority 2017, published 2021)

Assays:
[1] = Solubility of lactoferrin in aqueous solution in the presence of sodium butyrate; format: physicochemical; details: with or without added sodium butyrate
Method: Various solutions, with increasing ratios between sodium butyrate amount and lactoferrin amount, were prepared to verify the possible effect of sodium butyrate addition on lactoferrin solubility in aqueous solution.
In particular, ten different mixtures were prepared, whose weight rations are set out in the following Table 1, and the presence of undissolved body of lactoferrin was observed as a function of the increasing amount of sodium butyrate added to the solution.

[2] = system: Caco-2 cells; assay: Electron Microscopy (SEM) of microvilli of Caco-2 cells after damage induction; format: cell-based; details: pretreatment 60 h without glutamine, then 60 mM ethanol 4 h, 750x-10000x
Method: The same cells without damage induction (NC) and with damage induction (PC), as indicated above, were finally evaluated by Electron Microscopy (SEM) at different magnifications.
(§1) According to the experimental protocol, to evaluate the efficacy of the composition of the invention in damage prevention, sodium butyrate (2 mM concentration) and lactoferrin (400 μg/ml concentration), either alone or in combination, were applied on Caco-2 cells during stress induced by absence of glutamine, increasing the time of said deprivation, with respect to the conditions tested during the development of the model, and therefore of stress induction, to 60 hours, to make more evident differences in cells behavior in the different treatment situations. At the end of 60 hours, the products were removed, and damage was induced for 4 h with 60 mM ethanol. The parameters were evaluated at the end.
The same cells were finally evaluated also by Electron Microscopy SEM, at various magnifications.

[3] = system: Occludin and Zonula Occludens in Caco-2 cells; assay: Fluorescence immunolabeling of Occludin and Zonula Occludens in Caco-2 cells after damage induction; format: cell-based; details: pretreatment 60 h without glutamine, then 60 mM ethanol 4 h
Method: As it can be seen by FIG. 1, the damage induced an increase in permeability. The same cells without damage induction (NC) and with damage induction (PC), as indicated above, were further evaluated by fluorescence immunolabeling of Occludina and Zonula Occludens (proteins present in the intestinal membrane intracellular junctions).
as §1
To confirm the observed behavior, an evaluation using fluorescence immunolabeling of Occludin and Zonula Occludens was also performed.

[4] = system: Caco-2 cells; assay: Lucifer Yellow (LY) assay of paracellular permeability in Caco-2 intestinal damage model; format: cell-based
Method: A protocol was developed based on Caco-2 cell inserts model (CACOREADY™ cells, lot no. 24 676 101716 and no. 24 680 111416, Readycell manufacturer) consisting in two steps:
1. Induction of epithelial damage (40 h incubation in glutamine free medium followed by stress induced by 60 mM ethanol for 4 h)
2. Evaluation of the single products first, and then applied in combination during stress induced by the absence of glutamine (60 h), and with subsequent stress induced by ethanol, to evaluate the efficacy in preventing damage. […]
Cells without damage induction (NC=without damage) and with damage induction (PC) were evaluated with the Lucifer Yellow (LY) assay, which verifies the integrity of the cellular junctions in presence of the test substance. […]
as §1, with “At the end of 60 hours, the products were removed, and damage was induced for 4 h with 60 mM ethanol.” left out, “end. […]” for “end.”

B1: lactoferrin (protein, UniProt P02788 20-710, looked up)
Lactotransferrin: GRRRSVQWCAVSQPEATKCFQWQRNMRKVRGPPVSCIKRDSPIQCIQAIAENRADAVTLDGGFIYEAGLAPYKLRPVAAEVYGTERQPRTHYYAVAVVKKGGSFQLNELQGLKSCHTGLRRTAGWNVPIGTLRPFLNWTGPPEPIEAAVARFFSASCVPGADKGQFPNLCRLCAGTGENKCAFSSQEPYFSYSGAFKCLRDGAGDVAFIRESTVFEDLSDEAERDEYELLCPDNTRKPVDKFKDCHLARVPSHAVVARSVNGKEDAIWNLLRQAQEKFGKDKSPKFQLFGSPSGQKDLLFKDSAIGFSRVPPRIDSGLYLGSGYFTAIQNLRKSEEEVAARRARVVWCAVGEQELRKCNQWSGLSEGSVTCSSASTTEDCIALVLKGEADAMSLDGGYVYTAGKCGLVPVLAENYKSQQSSDPDPNCVDRPVEGYLAVAVVRRSDTSLTWNSVKGKKSCHTAVDRTAGWNIPMGLLFNQTGSCKFDEYFSQSCAPGSDPRSNLCALCIGDEQGENKCVPNSNERYYGYTGAFRCLAENAGDVAFVKDVTVLQNTDGNNNEAWAKDLKLADFALLCLDGKRKPVTEARSCHLAMAPNHAVVSRMDKVERLKQVLLHQQAKFGRNGSDCPDKFCLFQSETKNLLFNDNTECLARLHGKTTYEKYLGPQYVAGITNLKKCSTSPLLEACEFLRK
notes: antimicrobial and iron-carrying glycoprotein; B=400 μg/ml lactoferrin
In the case of B1, the “dissolution of lactoferrin in aqueous solution, result in words” value [1] is reported as “completely undissolved body in suspension”, the “effect on microvilli / villous atrophy by SEM, result in words” value [2] is reported as “positive effect on the villi functionality” and the “fluorescence intensity / expression of tight junction proteins (Occludin, Zonula Occludens), result in words” value [3] is reported as “good level of expression of the tight junctions' markers”. For the same molecule, the “reduction in LY flux with respect to positive control (PC)” value ([4]; product applied during 60 h glutamine deprivation, then 60 mM ethanol 4 h, 2 mM sodium butyrate and/or 400 μg/ml lactoferrin) was “about 12%” and the “permeability (LY), result in words” value ([4]; treatment at the same time as damage induction) was “not substantially changed compared to the negative control”.
